Results from the RNAGym collection of RNA variant scans (doi:10.7554/elife.80360).

B1: Hairpin Ribozyme (parent)
chain: GUCCUCUUUCACGUGCGCGUGAAAGAGAGAAGUGAACCAGAGAAACACACGUUGUGGUAUAUUACCUGGUA

Variants of: B1
Test: self-cleavage, relative activity (ratio to wild type); higher = more cleavage; co-transcriptional

**Q.** With GUCCUCUUUCACGUGCGCGUGCAAGAGAGAAGUGAACCAGGGAAACACACGUUGUGGUAUAUUACCUGGUA [A22C A41G] as the variant, how does the self-cleavage read?
**A.** Its self-cleavage is 0.704.

**Q.** For GUCCUCUUUCACGUGCGCGUGCAAGAGAGAAGUGAACCAGAGAAACACACGUUGUCGUAUAUUACCUGGUA [A22C G56C], which self-cleavage is on record?
**A.** The self-cleavage was 0.243.

**Q.** With GUCCUCUUUCACGUGCGCGUGCAAGAGAGAAGUGAACCAGAGAAACACACGUUGUUGUAUAUUACCUGGUA [A22C G56U] as the variant, how does the self-cleavage read?
**A.** The self-cleavage was 0.148.

**Q.** For GUCCUCUUUCACGUGCGCGUUAAAGAGAGAAGUGAACCAGAGAAACACACGUUGUGGUAUAUGACCUGGUA [G21U U63G], which self-cleavage is on record?
**A.** The self-cleavage was 0.248.

**Q.** Which self-cleavage does the source give for GUCCUCUUUCACGUGCGCGUUAAAGAGAGAAGUGAACCAGAGAAACACACGUUGUGGUAUAUCACCUGGUA [G21U U63C] here?
**A.** Its self-cleavage is 0.122.

**Q.** Which self-cleavage does the source give for GUCCUCUUUCACGUGCGCGUGCAAGAGAGAAGUGAACCAGAGAAACACACGUUGGGGUAUAUUACCUGGUA [A22C U55G] here?
**A.** Its self-cleavage is 0.173.

**Q.** With GUCCUCUUUCACGUGCGCGUGCAAGAGAGAAGUGAACCAGAGAAACACACGUUGCGGUAUAUUACCUGGUA [A22C U55C] as the variant, how does the self-cleavage read?
**A.** The self-cleavage was 0.247.

**Q.** Which self-cleavage does the source give for GUCCUCUUUCACGUGCGCGUUAAAGAGAGAAGUGAACCAGAGAAACACACGUUGUGGUACAUUACCUGGUA [G21U U60C] here?
**A.** Its self-cleavage is 1.08.

**Q.** With GUCCUCUUUCACGUGCGCGUUAAAGAGAGAAGUGAACCAGAGAAACACACGUUGUGGUAUAAUACCUGGUA [G21U U62A] as the variant, how does the self-cleavage read?
**A.** Its self-cleavage is 0.151.

**Q.** With GUCCUCUUUCACGUGCGCGUUAAAGAGAGAAGUGAACCAGAGAAACACACGUUGUGGUAUAUUACCUGGCA [G21U U70C] as the variant, how does the self-cleavage read?
**A.** Its self-cleavage is 0.687.

**Q.** With GUCCUCUUUCACGUGCGCGUGCAAGAGAGAAGUGAACCAGAUAAACACACGUUGUGGUAUAUUACCUGGUA [A22C G42U] as the variant, how does the self-cleavage read?
**A.** Its self-cleavage is 0.239.

**Q.** For GUCCUCUUUCACGUGCGCGUGCAAGAGAGAAGUGAACCAGAAAAACACACGUUGUGGUAUAUUACCUGGUA [A22C G42A], which self-cleavage is on record?
**A.** The self-cleavage was 0.146.

**Q.** For GUCCUCUUUCACGUGCGCGUGCAAGAGAGAAGUGAACCAGAGAAACACACGUUGUGGUAUAAUACCUGGUA [A22C U62A], which self-cleavage is on record?
**A.** Its self-cleavage is 0.128.

**Q.** Which self-cleavage does the source give for GUCCUCUUUCACGUGCGCGUGCAAGAGAGAAGUGAACCAGAGAAACACACGUUGUGGUAUAGUACCUGGUA [A22C U62G] here?
**A.** The self-cleavage was 0.155.

**Q.** Which self-cleavage does the source give for GUCCUCUUUCACGUGCGCGUGCAAGAGAGAAGUGAACCAGAGAAACACACGUUGUGGCAUAUUACCUGGUA [A22C U58C] here?
**A.** Its self-cleavage is 0.94.

**Q.** Which self-cleavage does the source give for GUCCUCUUUCACGUGCGCGUGCAAGAGAGAAGUGAACCAGAGAAACACACGUUGUGGUAUAUUAGCUGGUA [A22C C65G] here?
**A.** Its self-cleavage is 0.116.

**Q.** For GUCCUCUUUCACGUGCGCGUGCAAGAGAGAAGUGAACCAGAGAAACACACGUUGUGGUAUAUUAACUGGUA [A22C C65A], which self-cleavage is on record?
**A.** The self-cleavage was 0.64.

**Q.** With GUCCUCUUUCACGUGCGCGUGCAAGAGAGAAGUGAACCAGAGAAACACACGUUGUGGUAUAUUAUCUGGUA [A22C C65U] as the variant, how does the self-cleavage read?
**A.** The self-cleavage was 0.303.

**Q.** With GUCCUCUUUCACGUGCGCGUGCAAGAGAGAAGUGAACUAGAGAAACACACGUUGUGGUAUAUUACCUGGUA [A22C C38U] as the variant, how does the self-cleavage read?
**A.** The self-cleavage was 0.552.

**Q.** Which self-cleavage does the source give for GUCCUCUUUCACGUGCGCGUGCAAGAGAGAAGUGAACGAGAGAAACACACGUUGUGGUAUAUUACCUGGUA [A22C C38G] here?
**A.** The self-cleavage was 0.215.

**Q.** Which self-cleavage does the source give for GUCCUCUUUCACGUGCGCGUGCAAGAGAGAAGUGAACCAGAGAUACACACGUUGUGGUAUAUUACCUGGUA [A22C A44U] here?
**A.** The self-cleavage was 0.221.

**Q.** For GUCCUCUUUCACGUGCGCGUGCAAGCGAGAAGUGAACCAGAGAAACACACGUUGUGGUAUAUUACCUGGUA [A22C A26C], which self-cleavage is on record?
**A.** Its self-cleavage is 0.528.

**Q.** For GUCCUCUUUCACGUGCGCGUGGAGGAGAGAAGUGAACCAGAGAAACACACGUUGUGGUAUAUUACCUGGUA [A22G A24G], which self-cleavage is on record?
**A.** Its self-cleavage is 0.808.

**Q.** For GUCCUCUUUCACGUGCGCGUGGAUGAGAGAAGUGAACCAGAGAAACACACGUUGUGGUAUAUUACCUGGUA [A22G A24U], which self-cleavage is on record?
**A.** The self-cleavage was 1.08.

**Q.** For GUCCUCUUUCACGUGCGCGUGCAAGAGAGAAGUGAACCAGAGAAACACACGUUGUGGUACAUUACCUGGUA [A22C U60C], which self-cleavage is on record?
**A.** Its self-cleavage is 1.16.

**Q.** For GUCCUCUUUCACGUGCGCGUGCAAGAGAGAAGUGAACCAGAGAAACACACGUUGUGGUAAAUUACCUGGUA [A22C U60A], which self-cleavage is on record?
**A.** Its self-cleavage is 0.664.

**Q.** For GUCCUCUUUCACGUGCGCGUGCAAGAGAGAAGUGAACCAGAGAAACACACGUUGUGGUAGAUUACCUGGUA [A22C U60G], which self-cleavage is on record?
**A.** Its self-cleavage is 0.484.

**Q.** With GUCCUCUUUCACGUGCGCGUGCAAGAGAGAAGUGAACCAGAGAAACACACGUUGUGGUUUAUUACCUGGUA [A22C A59U] as the variant, how does the self-cleavage read?
**A.** Its self-cleavage is 0.104.

**Q.** For GUCCUCUUUCACGUGCGCGUGCAAGAGAGAAGUGAACCAGAGAAACACACGUUGUGGUGUAUUACCUGGUA [A22C A59G], which self-cleavage is on record?
**A.** The self-cleavage was 0.25.

**Q.** For GUCCUCUUUCACGUGCGCGUGCAAGAGAGAAGUGAACCAGAGAAACACACGUUGUGGUCUAUUACCUGGUA [A22C A59C], which self-cleavage is on record?
**A.** The self-cleavage was 0.0825.

**Q.** With GUCCUCUUUCACGUGCGCGUGCAAGAGAGAAGCGAACCAGAGAAACACACGUUGUGGUAUAUUACCUGGUA [A22C U33C] as the variant, how does the self-cleavage read?
**A.** Its self-cleavage is 0.155.

**Q.** For GUCCUCUUUCACGUGCGCGUGCAAGAGAGAAGAGAACCAGAGAAACACACGUUGUGGUAUAUUACCUGGUA [A22C U33A], which self-cleavage is on record?
**A.** Its self-cleavage is 0.0448.

**Q.** With GUCCUCUUUCACGUGCGCGUGCAAGAAAGAAGUGAACCAGAGAAACACACGUUGUGGUAUAUUACCUGGUA [A22C G27A] as the variant, how does the self-cleavage read?
**A.** The self-cleavage was 0.272.

**Q.** For GUCCUCUUUCACGUGCGCGUGCAAAAGAGAAGUGAACCAGAGAAACACACGUUGUGGUAUAUUACCUGGUA [A22C G25A], which self-cleavage is on record?
**A.** The self-cleavage was 0.247.

**Q.** Which self-cleavage does the source give for GUCCUCUUUCACGUGCGCGUGCAAGAGAGAAGUGAACCAGAGAAAAACACGUUGUGGUAUAUUACCUGGUA [A22C C46A] here?
**A.** The self-cleavage was 0.183.

**Q.** With GUCCUCUUUCACGUGCGCGUGCAGGAGAGAAGUGAACCAGAGAAACACACGUUGUGGUAUAUUACCUGGUA [A22C A24G] as the variant, how does the self-cleavage read?
**A.** The self-cleavage was 0.717.

**Q.** Which self-cleavage does the source give for GUCCUCUUUCACGUGCGCGUUAAAGAGAGAAGUGAACCAGAGAAACACACGUUGCGGUAUAUUACCUGGUA [G21U U55C] here?
**A.** Its self-cleavage is 0.288.

**Q.** Which self-cleavage does the source give for GUCCUCUUUCACGUGCGCGUGCAAGAGAGAAGUGAACCAGAGAAACACACGUUGUGGUAUAUUACUUGGUA [A22C C66U] here?
**A.** The self-cleavage was 0.649.
